In US20120277161A1, “INHIBITION OF MULTIPLE CELL ACTIVATION PATHWAYS” (INTER-K PTY LIMITED, priority 2009, published 2012) one finds % inhibition of kinase activity, cell-free assay, dendrimer data, which are given here for one molecule.

Ends that are not written are not given here.

Test [1] addresses human ERK2 (human) (UniProt P28482). The test is described as follows: cell-based or functional assay.
For test [2], the target named is MEK1 (h) (human) (UniProt Q02750). The test is described as follows: cell-based or functional assay.

human ERK2 (human), sequence (P28482 whole entry): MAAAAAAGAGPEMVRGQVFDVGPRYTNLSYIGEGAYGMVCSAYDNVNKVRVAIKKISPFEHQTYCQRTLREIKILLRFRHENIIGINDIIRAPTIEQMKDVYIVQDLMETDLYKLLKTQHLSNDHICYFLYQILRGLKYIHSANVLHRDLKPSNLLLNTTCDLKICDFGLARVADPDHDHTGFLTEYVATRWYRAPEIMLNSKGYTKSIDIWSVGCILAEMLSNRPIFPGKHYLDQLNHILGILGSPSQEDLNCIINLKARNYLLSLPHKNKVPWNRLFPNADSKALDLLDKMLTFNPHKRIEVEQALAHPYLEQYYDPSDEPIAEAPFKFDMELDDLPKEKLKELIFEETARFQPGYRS

As to RSRARNPLYR (peptide, part only, also: 10 copies on 10-mer dendrimer framework) [peptide dendrimer Dend 10β5 presenting 10 monomer units of the β5 integrin derived peptide …], the % inhibition of kinase activity, cell-free assay, dendrimer at 20 µM in test [1] amounted to 96 % inhibition; in test [2], 92 % inhibition.
